Measured values as given in paper PMC3583667 (Molecular Biology of the Cell, 2013).
Where two headings read alike, the source gives them in different places.

How the values were obtained:
Test in all cases: co-IP
[1] = biological target: T1, EGFP–Rab11-FIP1B (UniProt Q6WKZ4-4 1-1283)
T1 sequence (looked up): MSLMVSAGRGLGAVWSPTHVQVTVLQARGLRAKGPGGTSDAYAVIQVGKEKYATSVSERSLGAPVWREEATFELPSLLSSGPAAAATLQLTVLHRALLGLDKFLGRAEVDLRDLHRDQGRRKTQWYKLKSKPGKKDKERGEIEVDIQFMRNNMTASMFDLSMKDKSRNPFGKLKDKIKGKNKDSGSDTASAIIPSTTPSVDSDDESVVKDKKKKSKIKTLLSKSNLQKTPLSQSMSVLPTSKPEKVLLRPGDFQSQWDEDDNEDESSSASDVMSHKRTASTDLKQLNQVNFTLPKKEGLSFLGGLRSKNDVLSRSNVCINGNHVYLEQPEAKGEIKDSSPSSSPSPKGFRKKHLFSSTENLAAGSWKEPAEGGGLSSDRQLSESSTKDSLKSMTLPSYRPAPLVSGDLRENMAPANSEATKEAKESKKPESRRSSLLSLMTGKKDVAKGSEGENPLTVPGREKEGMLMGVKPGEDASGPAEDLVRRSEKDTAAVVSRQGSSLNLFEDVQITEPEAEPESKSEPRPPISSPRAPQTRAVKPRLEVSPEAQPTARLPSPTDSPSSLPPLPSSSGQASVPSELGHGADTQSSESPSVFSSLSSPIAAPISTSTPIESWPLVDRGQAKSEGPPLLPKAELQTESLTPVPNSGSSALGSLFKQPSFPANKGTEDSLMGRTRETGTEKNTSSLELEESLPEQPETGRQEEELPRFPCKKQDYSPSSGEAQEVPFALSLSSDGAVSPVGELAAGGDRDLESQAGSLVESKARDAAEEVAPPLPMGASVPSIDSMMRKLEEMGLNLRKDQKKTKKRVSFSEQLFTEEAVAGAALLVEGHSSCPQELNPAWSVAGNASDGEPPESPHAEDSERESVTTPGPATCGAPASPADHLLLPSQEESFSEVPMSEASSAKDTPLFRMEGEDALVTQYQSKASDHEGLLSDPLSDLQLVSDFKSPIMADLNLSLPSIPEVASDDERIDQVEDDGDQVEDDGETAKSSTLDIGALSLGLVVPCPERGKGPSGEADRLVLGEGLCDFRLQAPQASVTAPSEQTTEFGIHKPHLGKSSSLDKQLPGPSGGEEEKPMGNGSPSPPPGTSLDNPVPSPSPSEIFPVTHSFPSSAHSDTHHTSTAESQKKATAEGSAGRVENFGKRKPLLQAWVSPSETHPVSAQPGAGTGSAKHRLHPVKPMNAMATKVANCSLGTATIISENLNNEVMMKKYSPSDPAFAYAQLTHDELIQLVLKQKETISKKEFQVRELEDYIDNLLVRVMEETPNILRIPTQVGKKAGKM

[2] = biological target: T2, EGFP–Rab11-FIP1A (UniProt Q6WKZ4-1 1-612)
T2 sequence (looked up): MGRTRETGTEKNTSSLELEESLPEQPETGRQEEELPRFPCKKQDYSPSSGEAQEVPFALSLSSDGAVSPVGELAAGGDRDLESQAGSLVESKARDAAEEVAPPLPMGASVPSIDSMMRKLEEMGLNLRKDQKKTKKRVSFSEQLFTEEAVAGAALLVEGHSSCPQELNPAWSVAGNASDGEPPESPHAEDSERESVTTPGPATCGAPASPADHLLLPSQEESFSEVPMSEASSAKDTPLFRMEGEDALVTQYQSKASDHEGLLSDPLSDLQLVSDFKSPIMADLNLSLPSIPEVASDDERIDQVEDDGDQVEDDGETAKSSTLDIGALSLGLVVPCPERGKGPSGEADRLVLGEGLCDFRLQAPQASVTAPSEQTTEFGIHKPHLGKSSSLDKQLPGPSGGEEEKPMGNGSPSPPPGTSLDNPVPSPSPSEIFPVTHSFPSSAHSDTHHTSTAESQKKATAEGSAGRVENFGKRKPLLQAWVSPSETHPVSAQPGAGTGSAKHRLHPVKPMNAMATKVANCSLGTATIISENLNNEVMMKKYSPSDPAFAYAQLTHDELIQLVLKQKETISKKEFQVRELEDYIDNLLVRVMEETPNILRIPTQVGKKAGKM

[3] = biological target: T3, EGFP–Rab11-FIP1C (UniProt Q6WKZ4-3 1-649)
T3 sequence (looked up): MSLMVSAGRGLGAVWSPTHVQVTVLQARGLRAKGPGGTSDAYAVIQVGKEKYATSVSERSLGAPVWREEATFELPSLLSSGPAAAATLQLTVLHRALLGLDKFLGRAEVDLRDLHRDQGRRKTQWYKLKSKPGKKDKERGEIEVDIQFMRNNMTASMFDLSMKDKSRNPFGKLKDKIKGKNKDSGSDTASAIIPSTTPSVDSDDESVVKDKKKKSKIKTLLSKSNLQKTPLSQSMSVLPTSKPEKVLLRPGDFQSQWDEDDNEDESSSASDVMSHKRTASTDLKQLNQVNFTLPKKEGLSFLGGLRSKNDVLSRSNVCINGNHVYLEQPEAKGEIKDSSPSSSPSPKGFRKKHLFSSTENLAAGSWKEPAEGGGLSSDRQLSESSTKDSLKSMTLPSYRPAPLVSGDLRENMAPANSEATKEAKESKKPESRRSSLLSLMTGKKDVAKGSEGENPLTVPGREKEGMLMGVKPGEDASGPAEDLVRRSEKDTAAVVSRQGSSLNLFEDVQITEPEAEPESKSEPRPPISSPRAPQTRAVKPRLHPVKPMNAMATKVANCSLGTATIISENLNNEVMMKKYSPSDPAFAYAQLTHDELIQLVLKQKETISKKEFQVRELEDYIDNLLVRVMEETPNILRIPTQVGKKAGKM

[4] = biological target: T1, EGFP–Rab11-FIP1B; remark: listed apart in the source
[5] = biological target: T2, EGFP–Rab11-FIP1A; remark: listed apart in the source
[6] = biological target: T3, EGFP–Rab11-FIP1C; remark: listed apart in the source

B1: mCherry–Rab11-FIP1A (natural protein, UniProt Q6WKZ4-1 1-612, looked up)
chain: T2 sequence (looked up)
percentage of total FIP1A recovered on the beads [1]: 13.4%
percentage of total FIP1A recovered on the beads [2]: 18.6%
percentage of total FIP1A recovered on the beads [3]: 11.6%
percentage of total FIP1A recovered on the beads [4]: 11.8%
percentage of total FIP1A recovered on the beads [5]: 15.2%
percentage of total FIP1A recovered on the beads [6]: 15.2%
